Results from paper PMC9482650, “Quantitative fragmentomics allow affinity mapping of interactomes” (Nature Communications, 2022).

Assays:
Assay in all cases: holdup assay
Parameters in all cases: key: below the threshold = too weak to quantify, mostly under pKd 3.1 to 4
Conditions in all cases: plain residues with an end cap or a label only (N-terminal biotin on a linker: ado-ado)
GORASP2, Q9H8Y8 = target: GORASP2, Q9H8Y8
MPDZ_5, O75970 = target: T1, MPDZ_5, O75970
T1 sequence (O75970 695-796, limits assumed, looked up): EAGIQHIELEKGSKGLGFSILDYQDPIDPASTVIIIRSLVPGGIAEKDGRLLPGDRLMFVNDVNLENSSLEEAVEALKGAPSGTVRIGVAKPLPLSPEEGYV

DLG3_1, Q92796 = target: T2, DLG3_1, Q92796
T2 sequence (Q92796 125-227, limits assumed, looked up): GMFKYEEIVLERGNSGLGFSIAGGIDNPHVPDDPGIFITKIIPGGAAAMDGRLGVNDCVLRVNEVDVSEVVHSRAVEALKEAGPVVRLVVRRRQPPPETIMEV

Inadl_3, Q8NI35 = target: Inadl_3, Q8NI35
Chain of Inadl_3, Q8NI35 (Q8NI35 359-469): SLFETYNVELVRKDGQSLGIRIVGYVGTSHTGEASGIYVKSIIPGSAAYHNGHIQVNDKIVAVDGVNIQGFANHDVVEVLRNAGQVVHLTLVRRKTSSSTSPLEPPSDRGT

FRMPD2_2, Q68DX3 = target: FRMPD2_2, Q68DX3
Chain of FRMPD2_2, Q68DX3 (Q68DX3 944-1038): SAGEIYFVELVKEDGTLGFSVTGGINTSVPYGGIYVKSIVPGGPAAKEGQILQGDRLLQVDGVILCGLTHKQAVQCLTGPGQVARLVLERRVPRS

NHERF3_3, Q5T2W1 = target: T3, NHERF3_3, Q5T2W1
T3 sequence (Q5T2W1 238-333, limits assumed, looked up): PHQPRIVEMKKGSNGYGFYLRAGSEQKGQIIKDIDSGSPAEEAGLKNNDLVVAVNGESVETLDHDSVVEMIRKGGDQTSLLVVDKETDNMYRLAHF

FRMPD2_3, Q68DX3 = target: FRMPD2_3, Q68DX3
Chain of FRMPD2_3, Q68DX3 (Q68DX3 1073-1166): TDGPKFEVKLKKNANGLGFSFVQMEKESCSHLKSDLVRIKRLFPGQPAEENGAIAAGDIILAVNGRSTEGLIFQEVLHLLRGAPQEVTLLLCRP

LIMK2, P53671 = target: LIMK2, P53671
Chain of LIMK2, P53671 (P53671 143-248): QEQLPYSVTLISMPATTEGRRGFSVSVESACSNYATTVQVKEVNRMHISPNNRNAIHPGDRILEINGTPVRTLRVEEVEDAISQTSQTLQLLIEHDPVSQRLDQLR

MAGI2_4, Q86UL8 = target: MAGI2_4, Q86UL8
Chain of MAGI2_4, Q86UL8 (Q86UL8 772-865): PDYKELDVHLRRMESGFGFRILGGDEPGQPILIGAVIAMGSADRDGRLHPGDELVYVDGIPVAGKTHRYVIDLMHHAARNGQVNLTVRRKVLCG

Inadl_10, Q8NI35 = target: Inadl_10, Q8NI35
Chain of Inadl_10, Q8NI35 (Q8NI35 1673-1763): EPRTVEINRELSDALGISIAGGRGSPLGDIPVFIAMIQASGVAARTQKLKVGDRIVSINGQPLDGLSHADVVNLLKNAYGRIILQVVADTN

SNTG1, Q9NSN8 = target: T4, SNTG1, Q9NSN8
T4 sequence (Q9NSN8 52-150, limits assumed, looked up): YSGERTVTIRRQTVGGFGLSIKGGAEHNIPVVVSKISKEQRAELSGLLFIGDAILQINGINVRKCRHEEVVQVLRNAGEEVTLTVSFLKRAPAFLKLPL

PTPN13_1, Q12923 = target: T5, PTPN13_1, Q12923
T5 sequence (Q12923 1088-1188, limits assumed, looked up): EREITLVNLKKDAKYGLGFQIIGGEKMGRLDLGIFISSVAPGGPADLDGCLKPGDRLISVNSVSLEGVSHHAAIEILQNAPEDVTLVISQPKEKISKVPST

TJP1_3, Q07157 = target: TJP1_3, Q07157
Chain of TJP1_3, Q07157 (Q07157 416-512): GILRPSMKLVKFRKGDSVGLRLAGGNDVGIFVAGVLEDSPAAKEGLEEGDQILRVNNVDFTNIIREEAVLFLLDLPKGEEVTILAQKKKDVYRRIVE

SNTG2, Q9NY99 = target: T6, SNTG2, Q9NY99
T6 sequence (Q9NY99 68-166, limits assumed, looked up): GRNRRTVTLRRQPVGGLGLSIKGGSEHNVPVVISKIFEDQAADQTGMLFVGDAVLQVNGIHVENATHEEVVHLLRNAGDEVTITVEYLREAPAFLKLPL

PTPN3, P26045 = target: PTPN3, P26045
Chain of PTPN3, P26045 (P26045 505-587): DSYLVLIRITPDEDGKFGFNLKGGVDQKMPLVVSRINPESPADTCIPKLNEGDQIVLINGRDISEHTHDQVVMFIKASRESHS

DLG1_3, Q12959 = target: DLG1_3, Q12959
Chain of DLG1_3, Q12959 (Q12959 457-571): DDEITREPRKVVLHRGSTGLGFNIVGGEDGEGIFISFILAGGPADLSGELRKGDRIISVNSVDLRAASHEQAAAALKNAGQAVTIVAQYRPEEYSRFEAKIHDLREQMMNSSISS

DFNB31_1, Q9P202 = target: T7, DFNB31_1, Q9P202
T7 sequence (Q9P202 135-233, limits assumed, looked up): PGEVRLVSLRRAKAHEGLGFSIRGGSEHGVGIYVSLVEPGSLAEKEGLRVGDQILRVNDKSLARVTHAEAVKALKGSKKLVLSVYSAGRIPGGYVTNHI

AHNAK1, Q09666 = target: AHNAK1, Q09666
Chain of AHNAK1, Q09666 (Q09666 4-100): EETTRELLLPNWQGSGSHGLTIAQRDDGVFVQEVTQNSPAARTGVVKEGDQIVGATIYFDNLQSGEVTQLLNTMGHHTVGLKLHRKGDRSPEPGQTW

LNX1_2, Q8TBB1 = target: LNX1_2, Q8TBB1
Chain of LNX1_2, Q8TBB1 (Q8TBB1 371-470): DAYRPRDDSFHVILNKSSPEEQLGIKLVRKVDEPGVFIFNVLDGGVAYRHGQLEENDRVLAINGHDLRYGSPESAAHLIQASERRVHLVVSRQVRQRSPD

NHERF4_1, Q86UT5-2 = target: NHERF4_1, Q86UT5-2
Chain of NHERF4_1, Q86UT5-2 (Q86UT5 other isoform, or with tags, fused parts or gaps): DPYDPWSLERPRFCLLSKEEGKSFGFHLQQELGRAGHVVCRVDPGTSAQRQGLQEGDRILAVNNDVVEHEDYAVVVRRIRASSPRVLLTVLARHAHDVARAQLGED

Inadl_9, Q8NI35 = target: Inadl_9, Q8NI35
Chain of Inadl_9, Q8NI35 (Q8NI35 1530-1615): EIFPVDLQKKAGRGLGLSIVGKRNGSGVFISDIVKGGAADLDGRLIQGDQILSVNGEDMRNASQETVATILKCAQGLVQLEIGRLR

SCRIB_2, Q14160 = target: SCRIB_2, Q14160
Chain of SCRIB_2, Q14160 (Q14160 857-960): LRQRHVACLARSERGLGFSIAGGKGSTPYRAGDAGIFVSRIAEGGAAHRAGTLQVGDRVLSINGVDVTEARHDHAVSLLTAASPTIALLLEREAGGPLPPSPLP

LIN7A, O14910 = target: T8, LIN7A, O14910
T8 sequence (O14910 103-200, limits assumed, looked up): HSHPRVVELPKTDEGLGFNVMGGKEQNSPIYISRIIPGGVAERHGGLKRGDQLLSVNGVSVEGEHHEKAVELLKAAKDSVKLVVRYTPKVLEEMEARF

RADIL, Q96JH8 = target: T9, RADIL, Q96JH8
T9 sequence (Q96JH8 971-1071, limits assumed, looked up): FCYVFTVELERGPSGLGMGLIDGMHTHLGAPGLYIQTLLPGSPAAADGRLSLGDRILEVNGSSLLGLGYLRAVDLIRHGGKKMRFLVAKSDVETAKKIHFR

DLG3_2, Q92796 = target: T10, DLG3_2, Q92796
T10 sequence (Q92796 221-321, limits assumed, looked up): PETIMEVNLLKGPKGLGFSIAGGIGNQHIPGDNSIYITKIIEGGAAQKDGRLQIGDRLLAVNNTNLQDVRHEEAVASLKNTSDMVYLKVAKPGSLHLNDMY

RHPN1, Q8TCX5 = target: T11, RHPN1, Q8TCX5
T11 sequence (Q8TCX5 508-602, limits assumed, looked up): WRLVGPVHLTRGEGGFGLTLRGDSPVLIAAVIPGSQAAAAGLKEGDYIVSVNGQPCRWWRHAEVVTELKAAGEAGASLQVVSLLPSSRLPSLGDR

MAGI1_2, Q96QZ7 = target: MAGI1_2, Q96QZ7
Chain of MAGI1_2, Q96QZ7 (Q96QZ7 456-580): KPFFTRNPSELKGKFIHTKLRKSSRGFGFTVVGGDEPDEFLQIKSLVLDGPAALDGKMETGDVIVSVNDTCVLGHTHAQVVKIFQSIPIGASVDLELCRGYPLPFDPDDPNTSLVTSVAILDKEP

B1: NOS1AP, O75052 (peptide)
chain: GDGLDDEIAV
With B1 the pKd (GORASP2, Q9H8Y8) was “below the threshold”, the pKd (MPDZ_5, O75970) was “below the threshold” and the pKd (DLG3_1, Q92796) was “below the threshold”. The pKd (Inadl_3, Q8NI35) was “below the threshold”, the pKd (FRMPD2_2, Q68DX3) was “below the threshold” and the pKd (NHERF3_3, Q5T2W1) was “below the threshold”. The pKd (FRMPD2_3, Q68DX3) was 3.82, the pKd (LIMK2, P53671) was “below the threshold” and the pKd (MAGI2_4, Q86UL8) was “below the threshold”. For the same binder, the pKd (Inadl_10, Q8NI35) was “below the threshold”, the pKd (SNTG1, Q9NSN8) was “below the threshold” and the pKd (PTPN13_1, Q12923) was “below the threshold”. The pKd (TJP1_3, Q07157) was “below the threshold”, the pKd (SNTG2, Q9NY99) was “below the threshold” and the pKd (PTPN3, P26045) was 3.79. The pKd (DLG1_3, Q12959) was “below the threshold”, the pKd (DFNB31_1, Q9P202) was “below the threshold” and the pKd (AHNAK1, Q09666) was “below the threshold”. For the same binder, the pKd (LNX1_2, Q8TBB1) was 3.68, the pKd (NHERF4_1, Q86UT5-2) was “below the threshold” and the pKd (Inadl_9, Q8NI35) was 3.69. The pKd (SCRIB_2, Q14160) was “below the threshold”, the pKd (LIN7A, O14910) was “below the threshold” and the pKd (RADIL, Q96JH8) was “below the threshold”. The pKd (DLG3_2, Q92796) was 4.01, the pKd (RHPN1, Q8TCX5) was “below the threshold” and the pKd (MAGI1_2, Q96QZ7) was “below the threshold”.

B2: SMCHD1, A6NHR9 (peptide)
chain: QNRIITKTDV
In the case of B2, the pKd (GORASP2, Q9H8Y8) is reported as “below the threshold”, the pKd (MPDZ_5, O75970) is reported as “below the threshold” and the pKd (DLG3_1, Q92796) is reported as “below the threshold”. For the same binder, the pKd (Inadl_3, Q8NI35) was “below the threshold”, the pKd (FRMPD2_2, Q68DX3) was “below the threshold” and the pKd (NHERF3_3, Q5T2W1) was “below the threshold”. For the same binder, the pKd (FRMPD2_3, Q68DX3) was “below the threshold”, the pKd (LIMK2, P53671) was “below the threshold” and the pKd (MAGI2_4, Q86UL8) was 3.69. For the same binder, the pKd (Inadl_10, Q8NI35) was “below the threshold”, the pKd (SNTG1, Q9NSN8) was 3.48 and the pKd (PTPN13_1, Q12923) was “below the threshold”. The pKd (TJP1_3, Q07157) was “below the threshold”, the pKd (SNTG2, Q9NY99) was “below the threshold” and the pKd (PTPN3, P26045) was “below the threshold”. The pKd (DLG1_3, Q12959) was “below the threshold”, the pKd (DFNB31_1, Q9P202) was “below the threshold” and the pKd (AHNAK1, Q09666) was “below the threshold”. The pKd (LNX1_2, Q8TBB1) was “below the threshold”, the pKd (NHERF4_1, Q86UT5-2) was “below the threshold” and the pKd (Inadl_9, Q8NI35) was 3.55. The pKd (SCRIB_2, Q14160) was “below the threshold”, the pKd (LIN7A, O14910) was “below the threshold” and the pKd (RADIL, Q96JH8) was 3.64. For the same binder, the pKd (DLG3_2, Q92796) was 4.08, the pKd (RHPN1, Q8TCX5) was “below the threshold” and the pKd (MAGI1_2, Q96QZ7) was 3.99.

B3: UNC93A, Q86WB7 (peptide)
chain: AEDEEIQTKM
B3 was tested, and the pKd (GORASP2, Q9H8Y8) was “below the threshold”, the pKd (MPDZ_5, O75970) was “below the threshold” and the pKd (DLG3_1, Q92796) was “below the threshold”. The pKd (Inadl_3, Q8NI35) was “below the threshold”, the pKd (FRMPD2_2, Q68DX3) was “below the threshold” and the pKd (NHERF3_3, Q5T2W1) was 4.16. For the same binder, the pKd (FRMPD2_3, Q68DX3) was “below the threshold”, the pKd (LIMK2, P53671) was “below the threshold” and the pKd (MAGI2_4, Q86UL8) was “below the threshold”. For the same binder, the pKd (Inadl_10, Q8NI35) was “below the threshold”, the pKd (SNTG1, Q9NSN8) was “below the threshold” and the pKd (PTPN13_1, Q12923) was “below the threshold”. The pKd (TJP1_3, Q07157) was “below the threshold”, the pKd (SNTG2, Q9NY99) was “below the threshold” and the pKd (PTPN3, P26045) was 4.17. For the same binder, the pKd (DLG1_3, Q12959) was “below the threshold”, the pKd (DFNB31_1, Q9P202) was “below the threshold” and the pKd (AHNAK1, Q09666) was “below the threshold”. The pKd (LNX1_2, Q8TBB1) was “below the threshold”, the pKd (NHERF4_1, Q86UT5-2) was “below the threshold” and the pKd (Inadl_9, Q8NI35) was “below the threshold”. The pKd (SCRIB_2, Q14160) was “below the threshold”, the pKd (LIN7A, O14910) was “below the threshold” and the pKd (RADIL, Q96JH8) was “below the threshold”. The pKd (DLG3_2, Q92796) was “below the threshold”, the pKd (RHPN1, Q8TCX5) was 3.67 and the pKd (MAGI1_2, Q96QZ7) was “below the threshold”.
